Measurements: paper PMC4930479 (Angiogenesis, 2016)

Biological target: the molecule itself
Assay: SEC-MALS; inhibitor and ligand mixed at molar ratios 5:1 to 1:5 (20 µM and 100 µM), 12 h at ambient temperature; free proteins injected separately; Superose 12 10/300 GL, 10 mM phosphate, 500 mM NaCl, pH 7.0, 0.3 mL/min

B1: PlGF-2 (ligand, UniProt P49763-3 19-170, looked up)
chain: LPAVPPQQWALSAGNGSSEVEVVPFQEVWGRSYCRALERLVDVVSEYPSEVEHMFSPSCVSLLRCTGCCGDENLHCVPVETANVTMQLLKIRSGDRPSYVELTFSQHVRCECRPLREKMKPERRRPKGRGKRRREKQRPTDCHLCGDAVPRR
notes: PlGF-2, isoform of placental growth factor; Dimer (~42 kDa by SEC-MALLS); also called placental growth factor
stoichiometry N: 2
